Reference: patent publication US7595158B2, “Bcl2L12 polypeptide activators and inhibitors” (Dana-Farber Cancer Institute, Inc., priority 2003, dated 2009)

Tests used:
BJAB and SKW6.4 cells = assay: Apoptosis of lymphoid cells stimulated with anti-CD95 or STS (FACS scatter); format: cell-based; conditions: anti-CD95 or STS 24 hours, GFP positive cells
Method: In addition, BJAB and SKW6.4 cells were co-transfected (1:3 ratio) with a vector encoding GFP and either an empty vector control or a vector encoding Bcl2L12-V5. After 24 hours, the transfected cells were stimulated with anti-CD95 or STS for 24 hours at different concentrations. The cells were analyzed by FACS. A gate was set only on GFP positive cells. Apoptosis was defined as an increase in sideward scatter and a decrease in forward scatter. SKW6.4 cells are type I B cells, while BJAB cells are type II B cells.

[1] = system: Ink4a/Arf deficient astrocytes; assay: Cell growth of transfected Ink4a/Arf deficient astrocytes over six days; format: cell-based, mouse; conditions: LacZ about 1.5×10^6 cells
Method: (§1) Ink4a/Arf deficient astrocytes transfected with a vector encoding either LacZ, Bcl2L12-V5, or EGFR* polypeptides were cultured for six days. Each day, the number of cells in each culture was determined. In addition, stably transfected cells were harvested and assessed for the phosphorylation of Erk1/2 (p44/p42).

caspases 3 and 7 = assay: Western blot of procaspase maturation in STS-treated Ink4a/Arf deficient astrocytes; format: cell-based, mouse; conditions: STS 1 μM, 0-16 hours
Method: In another experiment, Ink4a/Arf deficient astrocytic cell cultures ectopically expressing the Bcl2L12-V5 polypeptide or containing pBabe were treated with STS (1 μM) for 0, 2, 4, 8, or 16 hours. Cell lysates were analyzed by Western blotting using anti-caspase-9 antibodies (1:1000; Cell Signaling), anti-caspase-7 antibodies (0.5 μg/ml; BD Pharmingen), anti-caspase-3 antibodies (0.25 μg/ml; BD Transduction Laboratories), anti-cleaved caspase-9 antibodies (1:1000; Cell Signaling), anti-cleaved capase-7 antibodies (1:1000; Calbiochem), and anti-cleaved caspase-3 antibodies (1:1000; Calbiochem).

Erk1 and Erk2 = assay: Phosphorylation of Erk1/2 (p44/p42) in transfected astrocytes; format: cell-based; conditions: vs control cells expressing LacZ
Method: as §1

astrocytes = assay: Mitochondrial membrane potential (JC-1, FACS) in STS-treated astrocytes; format: cell-based
Excerpt: Like nuclear swelling and plasma membrane integration, a loss of the mitochondrial membrane potential is a hallmark of […]. To determine the dissipation of ΔΨM, STS treated astrocytes transfected with either vector only (pBabe) or a vector encoding a Bcl2L12-V5 polypeptide were stained with JC-1, and cells with an increase in fluorescence (FL-1) were quantified using FACS analysis. JC-1 (5,5′,6,6′-tetrachloro-1,1′,3,3′-tetraethylbenzimidazolylcarbocyanine iodide) is a green-fluorescent probe that exists as a monomer at low concentrations or at low membrane potential. […] Thus, the emission of this cyanine dye can be used as a sensitive measure of mitochondrial membrane potential.

B1: Bcl2L12-V5: Bcl2L12 polypeptide having the V5 epitope tag, ectopically expressed from pBabe-Bcl2L12-V5 vector; human amino acid sequence 1-334 (protein)
chain: MGRPAGLFPPLCPFLGFRPEACWERHMQIERAPSVPPFLRWAGYRPGPVRRRGKVELIKFVRVQWRRPQVEWRRRRWGPGPGASMAGSEELGLREDTLRVLAAFLRRGEAAGSPVPTPPRSPAQEEPTDFLSRLRRCLPCSLGRGAAPSESPRPCSLPIRPCYGLEPGPATPDFYALVAQRLEQLVQEQLKSPPSPELQGPPSTEKEAILRRLVALLEEEAEVINQKLASDPALRSKLVRLSSDSFARLVELFCSRDDSSRPSRACPGPPPPSPEPLARLALAMELSRRVAGLGGTLAGLSVEHVHSFTPWIQAHGGWEGILAVSPVDLNLPLD
modifications: left off: small tags and cut ends
apoptosis (BJAB and SKW6.4 cells): promoted apoptosis
cell number on day 6 [1]: about 3.8×10^6 cells
maturation of effector caspases (caspases 3 and 7): significant reduction of the maturation of effector caspases 3 and 7
levels of Erk1 and Erk2 phosphorylation (Erk1 and Erk2): higher
dissipated mitochondrial membrane potential (astrocytes): marked increase in the dissipated membrane potential
